Laboratory results reported in patent US20160090402A1.

Assays:
[1] = target: hASCT2 receptor (human type 2 sodium-dependent neutral amino acid transporter) (human) (UniProt Q15758); test: soluble Env injected into SCID mice grafted with XChASCT2 cells; cells recovered, anti-RGS-His immunofluorescence
hASCT1 receptor (human) = hASCT1 receptor (human) (UniProt P43007); test: soluble Env injected into SCID mice grafted with XChASCT1 cells; cells recovered, anti-RGS-His immunofluorescence
Sequence of hASCT1 receptor (human) (P43007 whole entry): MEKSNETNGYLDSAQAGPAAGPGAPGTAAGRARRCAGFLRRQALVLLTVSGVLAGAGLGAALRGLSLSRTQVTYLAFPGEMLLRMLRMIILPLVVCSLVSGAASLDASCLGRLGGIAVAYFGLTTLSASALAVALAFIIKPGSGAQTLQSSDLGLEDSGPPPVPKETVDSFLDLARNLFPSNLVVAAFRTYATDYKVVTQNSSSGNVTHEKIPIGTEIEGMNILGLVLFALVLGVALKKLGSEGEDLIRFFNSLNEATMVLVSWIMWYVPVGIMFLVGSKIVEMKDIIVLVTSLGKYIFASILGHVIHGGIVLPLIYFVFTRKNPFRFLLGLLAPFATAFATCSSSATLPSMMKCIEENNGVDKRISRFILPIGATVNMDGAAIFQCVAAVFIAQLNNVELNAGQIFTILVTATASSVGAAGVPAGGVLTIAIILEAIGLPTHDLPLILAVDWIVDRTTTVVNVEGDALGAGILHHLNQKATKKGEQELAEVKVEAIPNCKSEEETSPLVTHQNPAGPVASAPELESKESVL

Sequence of hASCT2 receptor (human type 2 sodium-dependent neutral amino acid transporter) (human) (Q15758 whole entry): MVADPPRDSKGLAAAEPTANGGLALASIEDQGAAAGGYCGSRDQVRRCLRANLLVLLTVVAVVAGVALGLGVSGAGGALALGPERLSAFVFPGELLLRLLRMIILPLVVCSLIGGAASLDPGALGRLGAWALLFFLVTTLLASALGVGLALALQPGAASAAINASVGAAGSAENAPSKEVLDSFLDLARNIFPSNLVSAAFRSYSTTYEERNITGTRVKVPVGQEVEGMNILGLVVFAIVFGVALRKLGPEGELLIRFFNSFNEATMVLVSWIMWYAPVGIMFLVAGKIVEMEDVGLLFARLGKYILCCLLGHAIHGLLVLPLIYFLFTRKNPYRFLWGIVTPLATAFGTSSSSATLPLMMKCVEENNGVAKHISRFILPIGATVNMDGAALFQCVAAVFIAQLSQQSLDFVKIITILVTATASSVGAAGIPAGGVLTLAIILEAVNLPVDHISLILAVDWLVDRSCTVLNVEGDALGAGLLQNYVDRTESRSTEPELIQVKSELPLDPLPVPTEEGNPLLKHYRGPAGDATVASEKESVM

soluble protein of plasmid 460 (envelope-spacer-His6) (from UniProt Q9UQF0 21-435) (ligand)
NF/NT, Mean (fluorescent cells of 57 cells) [1]: 23 | NF/NT, Mean (fluorescent cells of 77 cells) (hASCT1 receptor (human)): 24
